The values that follow come from article PMC8811885 (ACS Omega, 2022).

This data set concerns the molecule itself. The data set can be described thus: SEC-MALS.

B1: human ELP1 with a C-terminal 3xFLAG tag (natural protein, UniProt O95163 1-1332, looked up)
chain: MRNLKLFRTLEFRDIQGPGNPQCFSLRTEQGTVLIGSEHGLIEVDPVSREVKNEVSLVAEGFLPEDGSGRIVGVQDLLDQESVCVATASGDVILCSLSTQQLECVGSVASGISVMSWSPDQELVLLATGQQTLIMMTKDFEPILEQQIHQDDFGESKFITVGWGRKETQFHGSEGRQAAFQMQMHESALPWDDHRPQVTWRGDGQFFAVSVVCPETGARKVRVWNREFALQSTSEPVAGLGPALAWKPSGSLIASTQDKPNQQDIVFFEKNGLLHGHFTLPFLKDEVKVNDLLWNADSSVLAVWLEDLQREESSIPKTCVQLWTVGNYHWYLKQSLSFSTCGKSKIVSLMWDPVTPYRLHVLCQGWHYLAYDWHWTTDRSVGDNSSDLSNVAVIDGNRVLVTVFRQTVVPPPMCTYQLLFPHPVNQVTFLAHPQKSNDLAVLDASNQISVYKCGDCPSADPTVKLGAVGGSGFKVCLRTPHLEKRYKIQFENNEDQDVNPLKLGLLTWIEEDVFLAVSHSEFSPRSVIHHLTAASSEMDEEHGQLNVSSSAAVDGVIISLCCNSKTKSVVLQLADGQIFKYLWESPSLAIKPWKNSGGFPVRFPYPCTQTELAMIGEEECVLGLTDRCRFFINDIEVASNITSFAVYDEFLLLTTHSHTCQCFCLRDASFKTLQAGLSSNHVSHGEVLRKVERGSRIVTVVPQDTKLVLQMPRGNLEVVHHRALVLAQIRKWLDKLMFKEAFECMRKLRINLNLIYDHNPKVFLGNVETFIKQIDSVNHINLFFTELKEEDVTKTMYPAPVTSSVYLSRDPDGNKIDLVCDAMRAVMESINPHKYCLSILTSHVKKTTPELEIVLQKVHELQGNAPSDPDAVSAEEALKYLLHLVDVNELYDHSLGTYDFDLVLMVAEKSQKDPKEYLPFLNTLKKMETNYQRFTIDKYLKRYEKAIGHLSKCGPEYFPECLNLIKDKNLYNEALKLYSPSSQQYQDISIAYGEHLMQEHMYEPAGLMFARCGAHEKALSAFLTCGNWKQALCVAAQLNFTKDQLVGLGRTLAGKLVEQRKHIDAAMVLEECAQDYEEAVLLLLEGAAWEEALRLVYKYNRLDIIETNVKPSILEAQKNYMAFLDSQTATFSRHKKRLLVVRELKEQAQQAGLDDEVPHGQESDLFSETSSVVSGSEMSGKYSHSNSRISARSSKNRRKAERKKHSLKEGSPLEDLALLEALSEVVQNTENLKDEVYHILKVLFLFEFDEQGRELQKAFEDTLQLMERSLPEIWTLTYQQNSATPVLGPNSTANSIMASYQQQKTSVPVLDAELFIPPKINRRTQWKLSLLD
As a reminder, the stoichiometry N is a count of units in the complex or per binding partner. Take B1: the “stoichiometry N” value was determined as 2.
